Kd data for one sequence are collected here from PMC12380113.

The target of data set [1] is T1, CD34 (human orbital fibroblasts) (Homo sapiens) (UniProt P28906).
T1 sequence: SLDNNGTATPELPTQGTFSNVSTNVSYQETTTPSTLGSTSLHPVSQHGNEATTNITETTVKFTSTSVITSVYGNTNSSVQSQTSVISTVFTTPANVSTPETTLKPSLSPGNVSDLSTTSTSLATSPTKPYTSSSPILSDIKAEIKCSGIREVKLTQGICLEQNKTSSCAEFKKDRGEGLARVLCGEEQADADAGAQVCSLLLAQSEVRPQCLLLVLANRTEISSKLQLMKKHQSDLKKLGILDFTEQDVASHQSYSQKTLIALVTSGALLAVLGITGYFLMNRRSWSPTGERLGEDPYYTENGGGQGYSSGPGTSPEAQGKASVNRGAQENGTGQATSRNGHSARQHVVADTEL
The data set is described as follows: flow cytometry. As to conditions: whole-cell binding to human orbital fibroblasts, 4 C, 1 h, SELEX binding buffer: DPBS, 4.5 mg/mL D-glucose, 5 mM MgCl2, 1 mg/mL BSA, 1 mg/mL yeast tRNA, flow cytometry at 4 C, pull-down lysis buffer 5 mM ….

Data set [2] has as its target T2, CD34 (mouse orbital fibroblasts) (Mus musculus) (UniProt Q64314).
T2 sequence: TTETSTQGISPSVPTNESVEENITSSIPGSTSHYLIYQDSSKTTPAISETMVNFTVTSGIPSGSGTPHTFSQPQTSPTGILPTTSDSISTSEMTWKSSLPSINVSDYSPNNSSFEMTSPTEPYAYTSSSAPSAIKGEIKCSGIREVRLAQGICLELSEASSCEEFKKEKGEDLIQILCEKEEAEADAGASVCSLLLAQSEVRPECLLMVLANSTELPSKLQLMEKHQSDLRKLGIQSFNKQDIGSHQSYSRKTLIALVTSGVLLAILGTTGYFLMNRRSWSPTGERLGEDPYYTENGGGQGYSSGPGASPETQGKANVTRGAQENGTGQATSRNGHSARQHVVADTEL
In words: flow cytometry. The settings on record: whole-cell binding to mouse orbital fibroblasts, 4 C, 1 h, SELEX binding buffer: DPBS, 4.5 mg/mL D-glucose, 5 mM MgCl2, 1 mg/mL BSA, 1 mg/mL yeast tRNA, flow cytometry at 4 C, pull-down lysis buffer 5 mM ….

As to “CAGCACCGTCAACTGAATCTCATTGCGGCGTCCGGCTGGACGTTATTGTTGGAACCGTGATGCGATGGAGATGT [CD34 Apt (FAM)]”, the Kd in data set [1] came out at 19.1 nM; in data set [2], 90.3 nM.
